Laboratory results as given in patent publication US20150322128A1 (Sanofi, published 2015).
Like-named read-outs stand apart in the source and are kept apart here. Numbered stars: 1 amine (or outer) side, 2 acyl side, 3 side chain; on linkers, the order of the positions; unused ones are H or OH. Square brackets hold non-standard residues; d marks the D form. Side chains are listed from the residue outwards. Ends that are not written are not given here. * marks the point of attachment. γGlu = O=C(O)[C@H](CCC(=O)[*:2])N[*:1]; Palmitoyl = CCCCCCCCCCCCCCCC(=O)*; Aib = CC(C)(N)C(=O)O

T1: human GIP receptor (human, UniProt P48546 22-466)
T1 sequence (looked up): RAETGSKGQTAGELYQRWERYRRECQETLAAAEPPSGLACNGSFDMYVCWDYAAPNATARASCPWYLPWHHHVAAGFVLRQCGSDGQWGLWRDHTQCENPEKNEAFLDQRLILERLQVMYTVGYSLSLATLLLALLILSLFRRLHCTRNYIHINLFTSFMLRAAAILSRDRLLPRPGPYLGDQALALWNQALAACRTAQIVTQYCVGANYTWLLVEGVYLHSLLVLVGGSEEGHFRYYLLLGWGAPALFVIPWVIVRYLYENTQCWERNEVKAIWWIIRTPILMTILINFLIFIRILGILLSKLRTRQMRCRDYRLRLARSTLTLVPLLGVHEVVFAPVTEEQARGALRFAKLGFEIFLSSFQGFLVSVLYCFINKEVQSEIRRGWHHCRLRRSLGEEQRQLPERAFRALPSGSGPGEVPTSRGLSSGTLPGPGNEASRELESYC


What was measured:
Experiment in all cases: cell-based or functional assay
human GLP-1 receptor [1] = target: T2, human GLP-1 receptor (human, UniProt P43220 24-463)
human GIP receptor [2] = target: T1, human GIP receptor
human glucagon receptor [3] = target: T3, human glucagon receptor (human, UniProt P47871 26-477)
T3 sequence (P47871 26-477): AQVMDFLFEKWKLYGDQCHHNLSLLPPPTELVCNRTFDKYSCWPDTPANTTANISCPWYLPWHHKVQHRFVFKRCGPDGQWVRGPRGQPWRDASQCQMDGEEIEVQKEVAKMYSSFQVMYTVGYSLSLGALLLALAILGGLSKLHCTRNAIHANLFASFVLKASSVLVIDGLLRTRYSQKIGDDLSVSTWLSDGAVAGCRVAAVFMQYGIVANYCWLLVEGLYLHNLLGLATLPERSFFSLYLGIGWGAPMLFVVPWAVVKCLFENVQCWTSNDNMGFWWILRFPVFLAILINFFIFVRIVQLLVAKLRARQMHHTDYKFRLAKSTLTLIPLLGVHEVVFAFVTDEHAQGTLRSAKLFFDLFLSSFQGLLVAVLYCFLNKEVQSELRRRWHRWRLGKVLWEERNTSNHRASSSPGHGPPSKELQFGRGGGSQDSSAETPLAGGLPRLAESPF

human GLP-1 receptor [4] = target: T2, human GLP-1 receptor; remark: listed apart in the source
human GIP receptor [5] = target: T1, human GIP receptor; remark: listed apart in the source
human glucagon receptor [6] = target: T3, human glucagon receptor; remark: listed apart in the source

| Binder | EC50 hGLP-1R (human GLP-1 receptor [1]) | EC50 hGIP-R (human GIP receptor [2]) | EC50 hGlucagon-R (human glucagon receptor [3]) | EC50 hGLP-1R (human GLP-1 receptor [4]) | EC50 hGIP-1 (human GIP receptor [5]) | EC50 hGlucagon-R (human glucagon receptor [6]) |
| --- | --- | --- | --- | --- | --- | --- |
| H[dS]HGTFTSDLSKQK([γGlu-γGlu-Palmitoyl])DEEAARLFIEWL[Aib]AGGPSSGAPPPS-NH2 [SEQ ID NO: 7] | 1.5 pM | 908 pM | 9 pM | 1.5 pM | 908 pM | 9 pM |
| H[dS]HGTFTSDLSKQK([γGlu-γGlu-Palmitoyl])EEEAARLFIEWL[Aib]AGGPSSGAPPPS-NH2 (N-terminus assumed; SMILES CCCCCCCCCCCCCCCC(=O)N[C@@H](CCC(=O)N[C@@H](CCC(=O)NCCCC[C@H](NC(=O)[C@H](CCC(N)=O)NC(=O)[C@H](CCCCN)NC(=O)[C@H](CO)NC(=O)[C@H](CC(C)C)NC(=O)[C@H](CC(=O)O)NC(=O)[C@H](CO)NC(=O)[C@@H](NC(=O)[C@H](Cc1ccccc1)NC(=O)[C@@H](NC(=O)CNC(=O)[C@H](Cc1c[nH]cn1)NC(=O)[C@@H](CO)NC(=O)[C@@H](N)Cc1c[nH]cn1)[C@@H](C)O)[C@@H](C)O)C(=O)N[C@@H](CCC(=O)O)C(=O)N[C@@H](CCC(=O)O)C(=O)N[C@@H](CCC(=O)O)C(=O)N[C@@H](C)C(=O)N[C@@H](C)C(=O)N[C@@H](CCCNC(=N)N)C(=O)N[C@@H](CC(C)C)C(=O)N[C@@H](Cc1ccccc1)C(=O)N[C@H](C(=O)N[C@@H](CCC(=O)O)C(=O)N[C@@H](Cc1c[nH]c2ccccc12)C(=O)N[C@@H](CC(C)C)C(=O)NC(C)(C)C(=O)N[C@@H](C)C(=O)NCC(=O)NCC(=O)N1CCC[C@H]1C(=O)N[C@@H](CO)C(=O)N[C@@H](CO)C(=O)NCC(=O)N[C@@H](C)C(=O)N1CCC[C@H]1C(=O)N1CCC[C@H]1C(=O)N1CCC[C@H]1C(=O)N[C@@H](CO)C(N)=O)[C@@H](C)CC)C(=O)O)C(=O)O) [SEQ ID NO: 6] | 2.6 pM | 1540 pM | 17.7 pM | 2.6 pM | 1540 pM | 17.7 pM |
| H[dS]QGTFTSDLSKQK([γGlu-γGlu-Palmitoyl])EEEAARLFIEWLKAGGPSSGAPPPS-NH2 (N-terminus assumed; SMILES CCCCCCCCCCCCCCCC(=O)N[C@@H](CCC(=O)N[C@@H](CCC(=O)NCCCC[C@H](NC(=O)[C@H](CCC(N)=O)NC(=O)[C@H](CCCCN)NC(=O)[C@H](CO)NC(=O)[C@H](CC(C)C)NC(=O)[C@H](CC(=O)O)NC(=O)[C@H](CO)NC(=O)[C@@H](NC(=O)[C@H](Cc1ccccc1)NC(=O)[C@@H](NC(=O)CNC(=O)[C@H](CCC(N)=O)NC(=O)[C@@H](CO)NC(=O)[C@@H](N)Cc1c[nH]cn1)[C@@H](C)O)[C@@H](C)O)C(=O)N[C@@H](CCC(=O)O)C(=O)N[C@@H](CCC(=O)O)C(=O)N[C@@H](CCC(=O)O)C(=O)N[C@@H](C)C(=O)N[C@@H](C)C(=O)N[C@@H](CCCNC(=N)N)C(=O)N[C@@H](CC(C)C)C(=O)N[C@@H](Cc1ccccc1)C(=O)N[C@H](C(=O)N[C@@H](CCC(=O)O)C(=O)N[C@@H](Cc1c[nH]c2ccccc12)C(=O)N[C@@H](CC(C)C)C(=O)N[C@@H](CCCCN)C(=O)N[C@@H](C)C(=O)NCC(=O)NCC(=O)N1CCC[C@H]1C(=O)N[C@@H](CO)C(=O)N[C@@H](CO)C(=O)NCC(=O)N[C@@H](C)C(=O)N1CCC[C@H]1C(=O)N1CCC[C@H]1C(=O)N1CCC[C@H]1C(=O)N[C@@H](CO)C(N)=O)[C@@H](C)CC)C(=O)O)C(=O)O) [SEQ ID NO: 31] | – | – | – | 1.3 pM | 345 pM | 7.4 pM |
| HSQGTFTSDLSKQK([γGlu-γGlu-Palmitoyl])DEEAARLFIEWL[Aib]AGGPSSGAPPPS-NH2 (N-terminus assumed; SMILES CCCCCCCCCCCCCCCC(=O)N[C@@H](CCC(=O)N[C@@H](CCC(=O)NCCCC[C@H](NC(=O)[C@H](CCC(N)=O)NC(=O)[C@H](CCCCN)NC(=O)[C@H](CO)NC(=O)[C@H](CC(C)C)NC(=O)[C@H](CC(=O)O)NC(=O)[C@H](CO)NC(=O)[C@@H](NC(=O)[C@H](Cc1ccccc1)NC(=O)[C@@H](NC(=O)CNC(=O)[C@H](CCC(N)=O)NC(=O)[C@H](CO)NC(=O)[C@@H](N)Cc1c[nH]cn1)[C@@H](C)O)[C@@H](C)O)C(=O)N[C@@H](CC(=O)O)C(=O)N[C@@H](CCC(=O)O)C(=O)N[C@@H](CCC(=O)O)C(=O)N[C@@H](C)C(=O)N[C@@H](C)C(=O)N[C@@H](CCCNC(=N)N)C(=O)N[C@@H](CC(C)C)C(=O)N[C@@H](Cc1ccccc1)C(=O)N[C@H](C(=O)N[C@@H](CCC(=O)O)C(=O)N[C@@H](Cc1c[nH]c2ccccc12)C(=O)N[C@@H](CC(C)C)C(=O)NC(C)(C)C(=O)N[C@@H](C)C(=O)NCC(=O)NCC(=O)N1CCC[C@H]1C(=O)N[C@@H](CO)C(=O)N[C@@H](CO)C(=O)NCC(=O)N[C@@H](C)C(=O)N1CCC[C@H]1C(=O)N1CCC[C@H]1C(=O)N1CCC[C@H]1C(=O)N[C@@H](CO)C(N)=O)[C@@H](C)CC)C(=O)O)C(=O)O) [SEQ ID NO: 11] | 1.2 pM | 560 pM | 5.1 pM | 1.2 pM | 560 pM | 5.1 pM |
| H[dS]QGTFTSDLSKQK([γGlu-γGlu-Palmitoyl])EEEAARLFIEWL[Aib]AGGPSSGAPPPS-NH2 (N-terminus assumed; SMILES CCCCCCCCCCCCCCCC(=O)N[C@@H](CCC(=O)N[C@@H](CCC(=O)NCCCC[C@H](NC(=O)[C@H](CCC(N)=O)NC(=O)[C@H](CCCCN)NC(=O)[C@H](CO)NC(=O)[C@H](CC(C)C)NC(=O)[C@H](CC(=O)O)NC(=O)[C@H](CO)NC(=O)[C@@H](NC(=O)[C@H](Cc1ccccc1)NC(=O)[C@@H](NC(=O)CNC(=O)[C@H](CCC(N)=O)NC(=O)[C@@H](CO)NC(=O)[C@@H](N)Cc1c[nH]cn1)[C@@H](C)O)[C@@H](C)O)C(=O)N[C@@H](CCC(=O)O)C(=O)N[C@@H](CCC(=O)O)C(=O)N[C@@H](CCC(=O)O)C(=O)N[C@@H](C)C(=O)N[C@@H](C)C(=O)N[C@@H](CCCNC(=N)N)C(=O)N[C@@H](CC(C)C)C(=O)N[C@@H](Cc1ccccc1)C(=O)N[C@H](C(=O)N[C@@H](CCC(=O)O)C(=O)N[C@@H](Cc1c[nH]c2ccccc12)C(=O)N[C@@H](CC(C)C)C(=O)NC(C)(C)C(=O)N[C@@H](C)C(=O)NCC(=O)NCC(=O)N1CCC[C@H]1C(=O)N[C@@H](CO)C(=O)N[C@@H](CO)C(=O)NCC(=O)N[C@@H](C)C(=O)N1CCC[C@H]1C(=O)N1CCC[C@H]1C(=O)N1CCC[C@H]1C(=O)N[C@@H](CO)C(N)=O)[C@@H](C)CC)C(=O)O)C(=O)O) [SEQ ID NO: 16] | 1.8 pM | 7780 pM | 35.4 pM | 1.8 pM | 7780 pM | 35.4 pM |
